Data on one molecule can be found in patent US20240383964A1, “De Novo Designed alpha(5) beta(1) Integrin selective minibinders” (UNIVERSITY OF WASHINGTON, priority 2023, published 2024).

For assay [1], the target named is integrin α5β1 (Homo sapiens, UniProt P05556+P08648). Kind of assay: Biolayer interferometry (BLI) binding to integrin α5β1. As to conditions: pH 5 supplemented with 1 mM MgCl2, 1 mM CaCl2. The source says:
The polypeptides of the disclosure selectively bind to α5β1 integrin with antagonistic activity. The term “antagonistic activity” is used herein to describe the activity of a polypeptide that, upon binding to α5β1 integrin, inactivates the integrin complex or inhibits processes normally initiated by the integrin. In some embodiments, the polypeptide or fusion protein of any embodiment or combination of embodiments herein, binds integrin α5β1 with an affinity of between about 0.025 nm and about 50 μm, or between about 0.05 nm and about 8 μm, or between about 0.05 nm and about 8 μm, or between about 0.05 nm and about 2.5 μm, or between about 0.05 nm and about 700 nm, or between about 0.05 nm and about 0.5 nm. The binding affinity can be measured, for example, using biolayer interferometry (BLI) or yeast display. […] In one such assay to measure the binding affinity to a51integrin, the polypeptides are cloned with an N-terminus avi-tag and biotinylated chemically. Prior to measurements, streptavidin-coated biosensors are first hydrated in assay buffer for 10 minutes. […]
15 constructs of identified initial hits were expressed and purified—their binding affinities range from nanomolar to micromolar (data not shown). […] The binding affinity of each variant was calculated as described in Cao et al, 2022. […]
Background: BLI is a label-free optical method that tracks binding on a fibre tip over time.

Assay [2] concerns the target integrin avb6 (Homo sapiens, UniProt P06756+P18564). Description: BLI cross specificity, integrin avb6. The format is binding. Conditions: 500 nM integrin (FIG. 2B legend: 500 nM or 1000 nM), integrin assay buffer.
Assay [3] concerns the target integrin a8b1 (Homo sapiens, UniProt P05556+P53708). Kind of assay: BLI cross specificity, integrin a8b1. Conditions: 500 nM integrin (FIG. 2B legend: 500 nM or 1000 nM), integrin assay buffer. The format is binding.
For assay [4], the target named is T1, α5β1 on K562 cells wild type (Homo sapiens, UniProt P05556+P08648).
T1 construct: endogenous in cells; host or cells: K562 wild type (printed 'A562')
Description: Cell surface titration of minibinder on wild type cells. It is filed as cell-based. As to conditions: α5β1 the only RGD binding integrin expressed. The procedure:
FIG. 2. (A) BLI binding affinity traces for minibinder or ^8RGD^10/GGG mutant against α5β1 in indicated buffers. Minibinder affinity to integrin α5β1 is dependent on metal ion presence and RGD motif. All affinity data was collected by Octet™ R8 and binding affinity was estimated by the Octet™ ForteBio software package. (B) Minibinder has no detectable affinity in presence of 500 nM or 1000 nM integrin αvβ1, αvβ3, αvβ6, αvβ8 and α8β1. (C) Cell surface titration of minibinder 4584_V5.3 and 00179_v4.1 against K562 cells wild type. […] Integrin α5 subunit and β1 subunit were stained with integrin α5 and active integrin β1 subunit specific antibody, respectively. (E) Quantification of (D). Quantification was counted as a percentage of mb-sheets that colocalized with staining of a5 and b1, a5 only, b1 only, or none; 30-35 sheets were counted in each biological repeat. […] Vascular stability was analyzed at 12-h timepoints. […] (G) Quantification of (F). The number of nodes, meshes, and tubes from images in (F) were quantified using an angiogenesis analyzer plug-in in ImageJ. Statistical significance of each were analyzed using One-way Anova Bonferroni's multiple comparison test. […] The wound area of T0 and T12 time points were quantified using imageJ and level of cell migration were calculated using this equation (AreaT0-T12)/AreaT0, all samples were normalized to PBS as fold change. […]

Assay [5] addresses integrin avb8 (Homo sapiens, UniProt P06756+P26012). Description: BLI cross specificity, integrin avb8. The format is binding. Conditions: 500 nM integrin (FIG. 2B legend: 500 nM or 1000 nM), integrin assay buffer.
Assay [6] addresses integrin avb1 (Homo sapiens, UniProt P05556+P06756). Kind of assay: BLI cross specificity, integrin avb1. The format is binding. As to conditions: 500 nM integrin (FIG. 2B legend: 500 nM or 1000 nM), integrin assay buffer.
Assay [7] concerns HUVECs. Kind of assay: Scratch-wound cell migration assay. It is filed as cell-based, human. Conditions: 20 nM, 12 hours, compared to PBS control. The procedure:
FIG. 2. (A) BLI binding affinity traces for minibinder or ^8RGD^10/GGG mutant against α5β1 in indicated buffers. Minibinder affinity to integrin α5β1 is dependent on metal ion presence and RGD motif. All affinity data was collected by Octet™ R8 and binding affinity was estimated by the Octet™ ForteBio software package. (B) Minibinder has no detectable affinity in presence of 500 nM or 1000 nM integrin αvβ1, αvβ3, αvβ6, αvβ8 and α8β1. (C) Cell surface titration of minibinder 4584_V5.3 and 00179_v4.1 against K562 cells wild type. […] Integrin α5 subunit and β1 subunit were stained with integrin α5 and active integrin β1 subunit specific antibody, respectively. (E) Quantification of (D). Quantification was counted as a percentage of mb-sheets that colocalized with staining of a5 and b1, a5 only, b1 only, or none; 30-35 sheets were counted in each biological repeat. […] Minibinders were added to HUVEC cells at 0, 0.1, 1, 10, and 100 nM. Vascular stability was analyzed at 12-h timepoints. 20 images were taken in each well at random locations. The scale bar is 100 μm. (G) Quantification of (F). The number of nodes, meshes, and tubes from images in (F) were quantified using an angiogenesis analyzer plug-in in ImageJ. Statistical significance of each were analyzed using One-way Anova Bonferroni's multiple comparison test. […] The wound area of T0 and T12 time points were quantified using imageJ and level of cell migration were calculated using this equation (AreaT0-T12)/AreaT0, all samples were normalized to PBS as fold change.
The inhibitory effect of 20 nM soluble 00179_v4.1 on cell migration was assessed using the scratch-wound assay. HUVECs were seeded with either 00179_v4.1 or PBS (used as a […] control) for 12 hours before capturing images for analysis.

Sequence of integrin a8b1 (P53708 39-906 limits assumed): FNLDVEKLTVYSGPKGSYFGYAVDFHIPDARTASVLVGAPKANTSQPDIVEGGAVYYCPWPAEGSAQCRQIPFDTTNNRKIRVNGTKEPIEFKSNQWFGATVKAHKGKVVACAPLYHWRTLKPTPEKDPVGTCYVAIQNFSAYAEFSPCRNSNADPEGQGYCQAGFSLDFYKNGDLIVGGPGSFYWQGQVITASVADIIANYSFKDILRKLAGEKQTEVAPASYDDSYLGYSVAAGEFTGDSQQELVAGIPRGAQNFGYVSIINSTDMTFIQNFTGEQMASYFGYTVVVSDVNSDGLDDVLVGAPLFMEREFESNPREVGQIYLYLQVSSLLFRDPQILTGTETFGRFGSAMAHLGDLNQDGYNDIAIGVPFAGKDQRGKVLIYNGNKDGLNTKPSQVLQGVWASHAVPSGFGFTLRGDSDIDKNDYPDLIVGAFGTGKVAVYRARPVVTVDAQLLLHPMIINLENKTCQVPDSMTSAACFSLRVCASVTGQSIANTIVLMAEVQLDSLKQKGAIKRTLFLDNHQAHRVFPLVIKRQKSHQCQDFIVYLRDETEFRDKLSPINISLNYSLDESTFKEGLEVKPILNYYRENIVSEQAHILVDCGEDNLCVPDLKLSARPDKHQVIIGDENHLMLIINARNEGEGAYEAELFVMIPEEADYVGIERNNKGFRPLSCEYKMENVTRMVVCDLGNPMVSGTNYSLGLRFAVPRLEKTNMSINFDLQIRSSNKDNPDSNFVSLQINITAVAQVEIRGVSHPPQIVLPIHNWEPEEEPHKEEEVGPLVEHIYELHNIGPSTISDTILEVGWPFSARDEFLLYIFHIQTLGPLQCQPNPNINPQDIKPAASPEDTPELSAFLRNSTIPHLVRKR
Sequence of integrin a8b1 (P53708 907-1011 partner limits assumed): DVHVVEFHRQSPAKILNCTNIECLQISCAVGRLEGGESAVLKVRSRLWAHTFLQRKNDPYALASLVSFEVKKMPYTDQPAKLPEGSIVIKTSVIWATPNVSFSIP
Sequence of integrin a8b1 (P05556 21-728 limits assumed): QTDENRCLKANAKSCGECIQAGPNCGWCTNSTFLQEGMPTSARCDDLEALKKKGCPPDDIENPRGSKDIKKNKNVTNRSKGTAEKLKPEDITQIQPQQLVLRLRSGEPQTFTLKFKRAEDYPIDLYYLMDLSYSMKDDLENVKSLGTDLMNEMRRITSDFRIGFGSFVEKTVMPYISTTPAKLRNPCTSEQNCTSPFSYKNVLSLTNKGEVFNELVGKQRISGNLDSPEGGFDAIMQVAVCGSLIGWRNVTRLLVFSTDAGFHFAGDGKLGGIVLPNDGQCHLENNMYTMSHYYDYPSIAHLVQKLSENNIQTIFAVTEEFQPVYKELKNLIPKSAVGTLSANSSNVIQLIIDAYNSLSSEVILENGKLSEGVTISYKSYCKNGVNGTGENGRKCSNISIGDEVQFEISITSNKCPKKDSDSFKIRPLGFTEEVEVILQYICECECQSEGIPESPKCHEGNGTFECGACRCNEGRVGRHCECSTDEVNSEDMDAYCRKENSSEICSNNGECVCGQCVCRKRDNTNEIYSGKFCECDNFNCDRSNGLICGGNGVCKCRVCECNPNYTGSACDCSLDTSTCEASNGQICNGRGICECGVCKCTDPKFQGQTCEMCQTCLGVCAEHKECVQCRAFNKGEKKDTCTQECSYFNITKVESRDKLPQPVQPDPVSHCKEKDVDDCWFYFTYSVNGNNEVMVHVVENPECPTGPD
Sequence of integrin avb8 (P06756 31-889 limits assumed): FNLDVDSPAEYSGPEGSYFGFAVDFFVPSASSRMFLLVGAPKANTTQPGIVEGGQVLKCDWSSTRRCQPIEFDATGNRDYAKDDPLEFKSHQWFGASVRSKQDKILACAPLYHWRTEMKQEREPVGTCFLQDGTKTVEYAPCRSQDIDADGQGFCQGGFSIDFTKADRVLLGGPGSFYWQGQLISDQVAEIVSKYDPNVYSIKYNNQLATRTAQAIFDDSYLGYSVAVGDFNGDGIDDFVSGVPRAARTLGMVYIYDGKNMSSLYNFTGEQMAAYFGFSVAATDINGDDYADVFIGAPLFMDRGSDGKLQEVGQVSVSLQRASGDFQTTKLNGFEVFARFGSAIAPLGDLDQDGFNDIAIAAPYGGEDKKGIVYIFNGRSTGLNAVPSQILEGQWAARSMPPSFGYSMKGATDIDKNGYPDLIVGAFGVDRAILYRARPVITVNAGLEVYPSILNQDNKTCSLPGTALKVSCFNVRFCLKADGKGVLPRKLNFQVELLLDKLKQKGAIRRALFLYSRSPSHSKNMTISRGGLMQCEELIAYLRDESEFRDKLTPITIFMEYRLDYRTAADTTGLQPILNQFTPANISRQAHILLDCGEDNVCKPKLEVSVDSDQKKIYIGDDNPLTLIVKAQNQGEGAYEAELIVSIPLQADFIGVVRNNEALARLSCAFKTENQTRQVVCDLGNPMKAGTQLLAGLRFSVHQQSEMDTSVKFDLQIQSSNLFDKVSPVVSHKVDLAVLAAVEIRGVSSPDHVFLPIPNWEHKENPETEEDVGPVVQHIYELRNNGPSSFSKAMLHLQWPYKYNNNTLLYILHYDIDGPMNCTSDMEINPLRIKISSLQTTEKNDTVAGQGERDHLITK
Sequence of integrin avb8 (P06756 891-992 partner limits assumed): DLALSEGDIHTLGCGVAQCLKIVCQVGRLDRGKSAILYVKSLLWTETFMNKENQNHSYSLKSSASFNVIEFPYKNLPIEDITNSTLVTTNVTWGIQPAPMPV
Sequence of integrin avb8 (P26012 43-684 limits assumed): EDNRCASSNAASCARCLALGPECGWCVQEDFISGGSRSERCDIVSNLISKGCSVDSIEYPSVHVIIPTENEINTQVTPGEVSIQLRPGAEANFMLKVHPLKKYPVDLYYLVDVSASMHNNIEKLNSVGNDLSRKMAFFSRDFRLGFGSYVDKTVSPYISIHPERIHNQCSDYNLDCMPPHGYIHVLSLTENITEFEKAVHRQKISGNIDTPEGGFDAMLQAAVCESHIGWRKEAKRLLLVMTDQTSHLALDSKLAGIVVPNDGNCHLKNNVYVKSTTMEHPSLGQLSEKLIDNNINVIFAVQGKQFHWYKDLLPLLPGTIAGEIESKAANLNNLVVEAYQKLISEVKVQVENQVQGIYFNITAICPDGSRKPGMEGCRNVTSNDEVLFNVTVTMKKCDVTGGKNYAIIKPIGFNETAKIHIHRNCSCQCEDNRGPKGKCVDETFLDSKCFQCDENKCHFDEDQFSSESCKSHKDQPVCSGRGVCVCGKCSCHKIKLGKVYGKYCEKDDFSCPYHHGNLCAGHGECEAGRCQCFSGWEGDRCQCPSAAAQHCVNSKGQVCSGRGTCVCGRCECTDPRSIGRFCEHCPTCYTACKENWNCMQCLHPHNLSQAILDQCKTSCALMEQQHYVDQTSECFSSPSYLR
Sequence of integrin avb6 (P06756 31-889 limits assumed): as the sequence (P06756 31-889 limits assumed) above
Sequence of integrin avb6 (P06756 891-992 partner limits assumed): as the sequence (P06756 891-992 partner limits assumed) above
Sequence of integrin avb6 (P18564 22-709 limits assumed): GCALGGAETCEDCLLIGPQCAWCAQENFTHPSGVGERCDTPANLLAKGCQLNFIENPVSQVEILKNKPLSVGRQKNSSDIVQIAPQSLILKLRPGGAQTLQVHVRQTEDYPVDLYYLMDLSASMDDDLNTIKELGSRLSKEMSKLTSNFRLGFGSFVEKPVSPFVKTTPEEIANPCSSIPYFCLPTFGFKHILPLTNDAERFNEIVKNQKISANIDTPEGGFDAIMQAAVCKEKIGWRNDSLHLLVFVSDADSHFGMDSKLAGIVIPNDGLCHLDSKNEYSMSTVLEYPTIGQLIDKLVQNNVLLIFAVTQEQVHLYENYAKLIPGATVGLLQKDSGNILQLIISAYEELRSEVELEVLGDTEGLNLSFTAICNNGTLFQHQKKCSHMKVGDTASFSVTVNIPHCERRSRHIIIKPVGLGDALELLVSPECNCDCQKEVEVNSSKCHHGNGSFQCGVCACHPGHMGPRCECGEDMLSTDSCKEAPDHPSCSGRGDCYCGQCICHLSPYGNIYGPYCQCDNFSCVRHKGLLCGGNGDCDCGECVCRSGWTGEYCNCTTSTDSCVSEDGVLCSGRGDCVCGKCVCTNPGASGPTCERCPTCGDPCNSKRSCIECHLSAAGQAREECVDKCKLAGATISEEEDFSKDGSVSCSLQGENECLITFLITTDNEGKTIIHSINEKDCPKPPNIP
Sequence of integrin avb1 (P06756 31-889 limits assumed): as the sequence (P06756 31-889 limits assumed) above
Sequence of integrin avb1 (P06756 891-992 partner limits assumed): as the sequence (P06756 891-992 partner limits assumed) above
Sequence of integrin avb1 (P05556 21-728 limits assumed): as the sequence (P05556 21-728 limits assumed) above

B1: 00179_v4.1: highest affinity α5β1 minibinder, sequence SELIIHGRGDFPSSELERLRERFERLGIKVRVDHKVLTLIGISEEEAERLARELRKRGIWVEIRK (protein)
chain: SELIIHGRGDFPSSELERLRERFERLGIKVRVDHKVLTLIGISEEEAERLARELRKRGIWVEIRK
Turning to B1, the “binding to α5β1 at pH 5” value in assay [1] was “still can bind”. In addition, the “binding to integrin avb6” value in assay [2] is given as “No detectable binding”. In assay [3], the “binding to integrin a8b1” value is on record as “No detectable binding”. Also, the “binding affinity to α5β1 on the cell surface” value in assay [4] is on record as “Nanomolar binding ability”. Also, the “binding to integrin avb8” value in assay [5] is listed as “No detectable binding”. The “binding to integrin avb1” value in assay [6] is listed as “No detectable binding”. Also, the cell migration result in assay [7] was “significant reduction in cell migration”.
